What is called Kd is the equilibrium constant for the complex coming apart.

Results on 2 molecules are retold here after US20190031759A1 (TECHNION RESEARCH AND DEVELOPMENT FOUNDATION, published 2019).

The experiment addresses recombinant single-chain HLA-A2-WT1Db126 complex (soluble, biotinylated scMHC-peptide complex) (human, site-specific biotinylation at the BirA recognition sequence at the carboxyl-terminus). Briefly: SPR (ProteOn XPR36), soluble HLA-A2/WT1Db126 complexes on chip-immobilized Fabs coupled through an anti-human Fab.

B1: F2 anti-HLA-A2/WT1Db126 TCR-like recombinant Fab antibody (Fab, V domains shown)
VH: QVQLVQSGGGLVKPGGSLRLSCAASGFTFSSYSMNWVRQAPGKGLEWVSSISSSSSYIYYADSVKGRFTISRDNAKNSLYLQMNSLRAEDTAVYYCARGDYYGLTFDPWGQGTLVTV
VL: LNFMLTQPHSVSESPGKTVTISCTRSSGSIASNYVQWYQQRPGSSPTTVIYEDNQRPSGVPDRFSGSIDSSSNSASLTISGLKTEDEADYYCQSYDSSNQNWVFGGGTKLTVLS
notes: Soluble human Fab from a naive phage Fab library, expressed in E. coli and purified on a TALON column; also called F2 Fab; F2 TCRL
With B1, the Kd is 400 nM.

B2: F3 anti-HLA-A2/WT1Db126 TCR-like recombinant Fab antibody (Fab, V domains shown)
VH: EVQLVQSGAEVKKTGSSVKVSCKASGYTFTYRYLHWARQAPGQALEWMGWITPFNGNTNYAQKFQDRVTITRDRSMSTAYMELSSLRSEDTAMYYCASSAYDAFDIWGQGTMVTV
VL: LSSELTQDPAVSVALGQTVKITCQGDSLRIHYASWYQQKPGQAPVLVIYGKDNRPSGIPDRFSGSSSGTSASLTITGARAEDEADYYCNSRDNSGDHVLFGGGTKLTVV
notes: Soluble human Fab from a naive phage Fab library; also called F3 Fab; F3 TCRL
Regarding B2, the Kd came to 30 nM.
